Data on 1 protein can be found in patent US6043072A, “Nucleic acids encoding Taxus geranylgeranyl diphosphate synthase, and methods of use” (Washington State University Research Foundation, priority 1998, dated 2000).

Substrate in data set [1]: CC(C)=CCC/C(C)=C/CC/C(C)=C/CO[P@@](=O)(O)OP(=O)(O)O
In words: purified protein, by the assay type. The conditions noted are these: other: double reciprocal plotting; remaining reactants at saturation.

Substrate in data set [2]: C=C(C)CCO[P@@](=O)(O)OP(=O)(O)O
Put plainly: purified protein, by the assay type. The conditions noted are these: other: double reciprocal plotting; remaining reactants at saturation.

B1: T. canadensis GGPP synthase (Taxus canadensis) (protein)
chain: FDFNEYMKSKAVAVDAALDKAIPLEYPEKIHESMRYSLLAGGKRVRPALCIAACELVGGSQDLAMPTACAMEMIHTMSLIHDDLPCMDNDDFRRGKPTNHKVFGEDTAVLAGDALLSFAFEHIAVATSKTVPSDRTLRVISELGKTIGSQGLVGGQVVDITSEGDANVDLKTLEWIHIHKTAVLLECSVVSGGILGGATEDEIARIRRYARCVGLLFQVVDDILDVTKSSEELGKTAGKDLLTDKATYPKLMGLEKAKEFAAELATRAKEELSSFDQIKAAPLLGLADYIAFRQN
B1: the Km (commonly the substrate concentration at which the rate is half of its maximum) in data set [1] was 6 µM; in data set [2] it was 7 µM.
